Laboratory results published in PMC9605926, “Safety of [^177Lu]Lu-NeoB treatment: a preclinical study characterizing absorbed dose and acute, early, and late organ toxicity” (European Journal of Nuclear Medicine and Molecular Imaging, 2022).

System: healthy Balb/c mice
Assay: Toxicity study, histopathology (5-point grade); 3 i.v. injections at 7-day interval; control group 2 = 3× 1200 pmol [175Lu]Lu-NeoB; treatment groups 1/2/3 = 3× 40 MBq/400 pmol, 80 MBq/800 pmol, 120 MBq/1200 pmol [177Lu]Lu-NeoB
Type: in vivo, mouse
Experimental: Five different experimental groups (10 male and 10 female healthy animals per group; n = 100) were included in the radiotoxicity study and treated as follows: control group 1: 3 × vehicle (PBS + kolliphor HS 15 (1 mg/mL)); control group 2: 3 × 1200 pmol [^175Lu]Lu-NeoB; treatment group 1: 3 × 40 MBq/400 pmol [^177Lu]Lu-NeoB; treatment group 2: 3 × 80 MBq/800 pmol [^177Lu]Lu-NeoB; and treatment group 3: 3 × 120 MBq/1200 pmol [^177Lu]Lu-NeoB.
Animals received 3 injections with an interval of 7 days between each injection.
At 5, 19, and 43 weeks after the first injection, 3–4 male and 3–4 female animals of each group were sacrificed by isoflurane overdose after a blood sample was taken by retro-orbital puncture. Hereafter, the axillary lymph nodes, mesenteric lymph nodes, skin, mammary fat pad, sternum, pancreas, adrenal glands, kidneys, spleen, liver, gallbladder, stomach, duodenum, jejunum, ileum, caecum, colon, rectum, testes (M), epididymis (M), seminal vesicles (M), prostate gland (M), ovaries (F), oviducts (F), uterus-cervix (F), vagina (F), bladder, ureters, sciatic nerve, skeletal muscle, femur, lungs, trachea, esophagus, thymus, thyroid gland, aorta, heart, brain, pituitary gland, eyes, harderian glands, tongue, spinal column, and the tail were collected and analyzed macroscopically. All organs and tissues were formalin fixed (4% buffered formaldehyde) and shipped to the European Research Biology Centre (ERBC, Pomezia, Rome, Italy) where histological sampling, embedding, sectioning (5 µm thick), and hematoxylin–eosin staining were performed according to standard guidelines. All organs and tissues were analyzed microscopically by an experienced pathologist. A 5-point grading scale was used: 1: minimal change, 2: mild change, 3: moderate change, 4: marked change, 5: severe change.

[1] = female wk 5, treatment group 1, grade 1
[2] = female wk 5, treatment group 1, grade 2
[3] = female wk 5, treatment group 2, grade 1
[4] = female wk 5, treatment group 2, grade 2
[5] = female wk 5, treatment group 3, grade 1
[6] = female wk 5, treatment group 3, grade 2
[7] = female wk 19, treatment group 1, grade 1
[8] = female wk 19, treatment group 1, grade 2
[9] = female wk 19, treatment group 2, grade 1
[10] = female wk 19, treatment group 2, grade 2
[11] = female wk 19, treatment group 3, grade 1
[12] = female wk 19, treatment group 3, grade 2
[13] = female wk 43, treatment group 1, grade 1
[14] = female wk 43, treatment group 1, grade 4
[15] = female wk 43, treatment group 2, grade 1
[16] = female wk 43, treatment group 2, grade 2
[17] = female wk 43, treatment group 3, grade 2
[18] = female wk 43, treatment group 3, grade 3
[19] = female wk 43, treatment group 3, grade 4
[20] = male wk 5, treatment group 1, grade 1
[21] = male wk 5, treatment group 1, grade 2
[22] = male wk 5, treatment group 3, grade 1
[23] = male wk 5, treatment group 3, grade 2
[24] = male wk 19, treatment group 1, grade 1
[25] = male wk 19, treatment group 1, grade 2
[26] = male wk 19, treatment group 2, grade 1
[27] = male wk 19, treatment group 2, grade 2
[28] = male wk 19, treatment group 3, grade 1
[29] = male wk 19, treatment group 3, grade 2
[30] = male wk 43, treatment group 1, grade 1
[31] = male wk 43, treatment group 1, grade 2
[32] = male wk 43, treatment group 2, grade 1
[33] = male wk 43, treatment group 2, grade 2
[34] = male wk 43, treatment group 3, grade 1
[35] = male wk 43, treatment group 3, grade 2
[36] = male wk 43, treatment group 3, grade 3
[37] = week 19, male treatment group 2

CC(C)CC(CC(C)C)NC(=O)[C@H](Cc1cnc[nH]1)NC(=O)CNC(=O)[C@@H](NC(=O)[C@H](C)NC(=O)[C@H](Cc1c[nH]c2ccccc12)NC(=O)[C@H](CCC(N)=O)NC(=O)[C@@H](Cc1ccccc1)NC(=O)COCC(=O)Nc1ccc(CNC(=O)CN2CCN(CC(=O)O)CCN(CC(=O)O)CCN(CC(=O)O)CC2)cc1)C(C)C [[^177Lu]Lu-NeoB, metal not drawn]
Adrenal glands subcapsular cell hyperplasia, incidence [1]: 1/3 | Urinary bladder inflammatory cell foci, incidence [1]: 1/3 | Adrenal glands subcapsular cell hyperplasia, incidence [2]: 1/3 | Spleen extramedullary haematopoiesis, incidence [2]: 2/3 | Adrenal glands subcapsular cell hyperplasia, incidence [3]: 3/3 | Liver inflammatory cell foci, incidence [3]: 1/3 | Urinary bladder inflammatory cell foci, incidence [3]: 1/3 | Urinary bladder urothelium vacuolation, incidence [3]: 2/3 | Urinary bladder inflammatory cell foci, incidence [4]: 2/3 | Urinary bladder urothelium vacuolation, incidence [4]: 1/3 | Adrenal glands subcapsular cell hyperplasia, incidence [5]: 1/3 | Liver inflammatory cell foci, incidence [5]: 1/3 | Thyroid gland follicular cyst/s, incidence [5]: 1/3 | Urinary bladder inflammatory cell foci, incidence [5]: 1/3 | Urinary bladder urothelium vacuolation, incidence [5]: 1/3 | Spleen extramedullary haematopoiesis, incidence [6]: 1/3 | Urinary bladder inflammatory cell foci, incidence [6]: 2/3 | Urinary bladder urothelium vacuolation, incidence [6]: 2/3 | Brain artifacts, incidence (female wk 5, treatment group 3, grade 3): 1/3 | Adrenal glands subcapsular cell hyperplasia, incidence [7]: 1/3 | Liver inflammatory cell foci, incidence [7]: 1/3 | Pancreas inflammatory cell foci, incidence [7]: 2/3 | Urinary bladder inflammatory cell foci, incidence [7]: 2/3 | Urinary bladder urothelium vacuolation, incidence [7]: 2/3 | Adrenal glands subcapsular cell hyperplasia, incidence [8]: 2/3 | Liver inflammatory cell foci, incidence [8]: 1/3 | Urinary bladder inflammatory cell foci, incidence [8]: 1/3 | Kidneys hydronephrosis, incidence (female wk 19, treatment group 1, grade 4): 1/3 | Adrenal glands subcapsular cell hyperplasia, incidence [9]: 2/3 | Liver inflammatory cell foci, incidence [9]: 2/3 | Pancreas inflammatory cell foci, incidence [9]: 1/3 | Urinary bladder inflammatory cell foci, incidence [9]: 2/3 | Urinary bladder urothelium vacuolation, incidence [9]: 2/3 | Adrenal glands subcapsular cell hyperplasia, incidence [10]: 1/3 | Spleen extramedullary haematopoiesis, incidence [10]: 1/3 | Urinary bladder urothelium vacuolation, incidence [10]: 1/3 | Adrenal glands subcapsular cell hyperplasia, incidence [11]: 1/3 | Pancreas inflammatory cell foci, incidence [11]: 1/3 | Urinary bladder inflammatory cell foci, incidence [11]: 1/3 | Urinary bladder urothelium vacuolation, incidence [11]: 1/3 | Adrenal glands subcapsular cell hyperplasia, incidence [12]: 2/3 | Kidneys nephropathy, incidence [12]: 1/3 | Pancreas inflammatory cell foci, incidence [12]: 1/3 | Ureter(s) dilatation, incidence [12]: 1/3 | Urinary bladder inflammatory cell foci, incidence [12]: 1/3 | Urinary bladder urothelium vacuolation, incidence [12]: 1/3 | Urinary bladder inflammatory cell foci, incidence (female wk 19, treatment group 3, grade 3): 1/3 | Kidneys hydronephrosis, incidence (female wk 19, treatment group 3, grade 4): 3/3 | Urinary bladder inflammatory cell foci, incidence [13]: 1/3 | Urinary bladder urothelium vacuolation, incidence [13]: 1/3 | Adrenal glands subcapsular cell hyperplasia, incidence (female wk 43, treatment group 1, grade 2): 2/3 | Adrenal glands subcapsular cell hyperplasia, incidence (female wk 43, treatment group 1, grade 3): 1/3 | Ovaries atrophy, incidence [14]: 3/3 | Uterus endometrial hyperplasia, incidence [14]: 3/3 | Liver inflammatory cell foci, incidence [15]: 3/4 | Urinary bladder inflammatory cell foci, incidence [15]: 1/4 | Urinary bladder urothelium vacuolation, incidence [15]: 1/4 | Adrenal glands subcapsular cell hyperplasia, incidence [16]: 3/4 | Lungs alveolar epithelialization, incidence [16]: 1/4 | Adrenal glands subcapsular cell hyperplasia, incidence (female wk 43, treatment group 2, grade 3): 1/4 | Ovaries atrophy, incidence (female wk 43, treatment group 2, grade 4): 3/4 | Kidneys hydronephrosis, incidence (female wk 43, treatment group 2, grade 5): 1/4 | Adrenal glands subcapsular cell hyperplasia, incidence [17]: 4/4 | Pancreas inflammatory cell foci, incidence [17]: 1/4 | Urinary bladder mineralization, incidence [17]: 1/4 | Lungs B-adenoma, incidence [18]: 1/4 | Ureter(s) dilation, incidence [18]: 1/4 | Kidneys hydronephrosis, incidence [19]: 1/4 | Ovaries atrophy, incidence [19]: 4/4 | Kidneys hydronephrosis, incidence (female wk 43, treatment group 3, grade 5): 1/4 | Adrenal glands subcapsular cell hyperplasia, incidence [20]: 1/3 | Pancreas acinar cell degeneration, incidence [20]: 1/3 | Spleen extramedullary haematopoiesis, incidence [21]: 2/3 | Testes germ cell depletion, incidence [21]: 1/3 | Thyroid gland ectopic thymus, incidence (male wk 5, treatment group 1, grade 3): 1/3 | Testes germ cell depletion, incidence (male wk 5, treatment group 2, grade 1): 1/3 | Thyroid gland ectopic thymus, incidence (male wk 5, treatment group 2, grade 3): 1/3 | Prostate gland inflammatory cell foci, incidence [22]: 2/3 | Testes germ cell depletion, incidence [22]: 1/3 | Urinary bladder inflammatory cell foci, incidence [22]: 3/3 | Urinary bladder urothelium vacuolation, incidence [22]: 2/3 | Heart inflammatory cell foci, incidence [23]: 1/3 | Pancreas mineralization, incidence [23]: 1/3 | Urinary bladder mineralization, incidence [23]: 1/3 | Urinary bladder urothelium vacuolation, incidence [23]: 1/3 | Adrenal glands subcapsular cell hyperplasia, incidence [24]: 1/3 | Testes germ cell depletion, incidence [24]: 2/3 | Adrenal glands subcapsular cell hyperplasia, incidence [25]: 1/3 | Spleen extramedullary haematopoiesis, incidence [25]: 1/3 | Thyroid gland ectopic thymus, incidence (male wk 19, treatment group 1, grade 3): 1/3 | Adrenal glands subcapsular cell hyperplasia, incidence [26]: 1/3 | Urinary bladder inflammatory cell foci, incidence [26]: 2/3 | Urinary bladder urothelium vacuolation, incidence [26]: 3/3 | Adrenal glands subcapsular cell hyperplasia, incidence [27]: 1/3 | Pancreas inflammatory cell foci, incidence [27]: 2/3 | Kidneys hydronephrosis, incidence (male wk 19, treatment group 2, grade 3): 1/3 | Kidneys hydronephrosis, incidence (male wk 19, treatment group 2, grade 4): 2/3 | Adrenal glands subcapsular cell hyperplasia, incidence [28]: 2/3 | Urinary bladder urothelium vacuolation, incidence [28]: 1/3 | Adrenal glands subcapsular cell hyperplasia, incidence [29]: 1/3 | Spleen extramedullary haematopoiesis, incidence [29]: 1/3 | Thyroid gland ectopic thymus, incidence (male wk 19, treatment group 3, grade 3): 1/3 | Kidneys hydronephrosis, incidence (male wk 19, treatment group 3, grade 4): 2/3 | Adrenal glands subcapsular cell hyperplasia, incidence [30]: 2/3 | Kidneys inflammatory cell foci, incidence [30]: 1/3 | Kidneys nephropathy, incidence [30]: 2/3 | Pancreas acinar cell degeneration, incidence [30]: 1/3 | Pancreas inflammatory cell foci, incidence [30]: 1/3 | Skin inflammatory cell foci, incidence [30]: 1/3 | Skin scab formulation, incidence [30]: 1/3 | Urinary bladder inflammatory cell foci, incidence [30]: 1/3 | Adrenal glands subcapsular cell hyperplasia, incidence [31]: 1/3 | Pancreas inflammatory cell foci, incidence [31]: 2/3 | Adrenal glands subcapsular cell hyperplasia, incidence [32]: 2/4 | Kidneys nephropathy, incidence [32]: 1/4 | Urinary bladder inflammatory cell foci, incidence [32]: 2/4 | Urinary bladder urothelium vacuolation, incidence [32]: 1/4 | Adrenal glands subcapsular cell hyperplasia, incidence [33]: 1/4 | Kidneys nephropathy, incidence [33]: 1/4 | Pancreas inflammatory cell foci, incidence [33]: 2/4 | Urinary bladder inflammatory cell foci, incidence [33]: 1/4 | Adrenal glands subcapsular cell hyperplasia, incidence (male wk 43, treatment group 2, grade 3): 1/4 | Kidneys hydronephrosis, incidence (male wk 43, treatment group 2, grade 4): 2/4 | Adrenal glands subcapsular cell hyperplasia, incidence [34]: 3/4 | Kidneys nephropathy, incidence [34]: 1/4 | Liver inflammatory cell foci, incidence [34]: 2/4 | Pancreas inflammatory cell foci, incidence [34]: 2/4 | Skin inflammatory cell foci, incidence [34]: 1/4 | Testes germ cell depletion, incidence [34]: 1/4 | Adrenal glands subcapsular cell hyperplasia, incidence [35]: 1/4 | Kidneys cyst/s, incidence [35]: 1/4 | Epididymides spermatic granuloma, incidence [36]: 1/4 | Ureter(s) dilation, incidence [36]: 1/4 | Kidneys hydronephrosis, incidence (male wk 43, treatment group 3, grade 4): 3/4 | Cytoplasmic vacuolation of urothelial cells, incidence (week 5, female treatment group 2, minimal or mild): 3/3 | Cytoplasmic vacuolation of urothelial cells, incidence (week 5, female treatment group 3, minimal or mild): 3/3 | Cytoplasmic vacuolation of urothelial cells, incidence (week 5, male treatment group 3, minimal or mild): 3/3 | Cytoplasmic vacuolation of urothelial cells, incidence (week 19, all female treatment groups): 7/9 | Hydronephrosis, incidence (week 19, female treatment group 1): 1/3 | Hydronephrosis, incidence (week 19, female treatment group 3): 3/3 | Cytoplasmic vacuolation of urothelial cells, incidence [37]: 3/3 | Hydronephrosis, incidence [37]: 3/3 | Hydronephrosis, incidence (week 19, male treatment group 3): 2/3 | Marked ovarian atrophy, incidence (week 43, all treated females): 10/11 | Marked or severe hydronephrosis, incidence (week 43, female treatment group 2): 1/4 | Marked or severe hydronephrosis, incidence (week 43, female treatment group 3): 2/4 | Marked or severe hydronephrosis, incidence (week 43, male treatment group 2): 2/4 | Marked or severe hydronephrosis, incidence (week 43, male treatment group 3): 3/4
